Data on six molecules can be found in publication PMC7864929, “Crystal structure of the human PRPK–TPRKB complex” (Communications Biology, 2021).

Residue numbers refer to the chain shown, from its start. Numbers in names are those of the source.

T1: MBP-tagged OSGEP (human, UniProt Q9NPF4 1-335)
T1 construct: human OSGEP (gene bought from DNAsu); Cloned into a modified pMal-c2X vector; also called MBP-OSGEP; Kae1 (yeast ortholog); source: E. coli BL21-CodonPlus (DE3), purified (amylose resin, HiTrap Q anion exchange)
T1 sequence (looked up): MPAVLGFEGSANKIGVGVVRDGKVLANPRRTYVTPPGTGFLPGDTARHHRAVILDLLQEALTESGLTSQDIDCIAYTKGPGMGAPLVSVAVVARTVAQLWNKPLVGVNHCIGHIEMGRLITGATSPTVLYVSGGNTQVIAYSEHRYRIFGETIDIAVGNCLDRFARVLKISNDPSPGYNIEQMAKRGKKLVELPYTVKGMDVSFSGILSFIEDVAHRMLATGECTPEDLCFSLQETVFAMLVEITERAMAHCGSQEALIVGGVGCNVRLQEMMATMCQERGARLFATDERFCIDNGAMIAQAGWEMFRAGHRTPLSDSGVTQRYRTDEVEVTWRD

B1: GST-tagged PRPK S250A (enzyme, human, UniProt Q96S44 1-253, looked up)
chain: MAAARATTPADGEEPAPEAEALAAARERSSRFLSGLELVKQGAEARVFRGRFQGRAAVIKHRFPKGYRHPALEARLGRRRTVQEARALLRCRRAGISAPVVFFVDYASNCLYMEEIEGSVTVRDYIQSTMETEKTPQGLSNLAKTIGQVLARMHDEDLIHGDLTTSNMLLKPPLEQLNIVLIDFGLSFISALPEDKGVDLYVLEKAFLSTHPNTETVFEAFLKSYSTSSKKARPVLKKLDEVRLRGRKRAMVG
notes: human p53-related protein kinase (PRPK, TP53RK) with S250A; source: E. coli BL21 lysate, captured on glutathione Sepharose 4B resin
B2: GST-tagged PRPK R80A (enzyme, human, UniProt Q96S44 1-253, looked up)
chain: B1 chain with R80A, A250S
notes: human p53-related protein kinase (PRPK, TP53RK) with R80A; source: E. coli BL21 lysate, captured on glutathione Sepharose 4B resin
B3: GST-tagged PRPK K205A (enzyme, human, UniProt Q96S44 1-253, looked up)
chain: B1 chain with K205A, A250S
notes: human p53-related protein kinase (PRPK, TP53RK) with K205A; source: E. coli BL21 lysate, captured on glutathione Sepharose 4B resin
B4: GST-tagged PRPK K65A (enzyme, human, UniProt Q96S44 1-253, looked up)
chain: B1 chain with K65A, A250S
notes: human p53-related protein kinase (PRPK, TP53RK) with K65A; source: E. coli BL21 lysate, captured on glutathione Sepharose 4B resin
B5: GST-tagged PRPK S250E (enzyme, human, UniProt Q96S44 1-253, looked up)
chain: B1 chain with A250E
notes: human p53-related protein kinase (PRPK, TP53RK) with S250E; source: E. coli BL21 lysate, captured on glutathione Sepharose 4B resin
B6: GST-tagged PRPK (wild type) (enzyme, human, UniProt Q96S44 1-253, looked up)
chain: B1 chain with A250S
notes: human p53-related protein kinase (PRPK, TP53RK); Cloned into pGEX-6p-1; Parent of the GST-PRPK mutants; also called GST-PRPK; TP53RK; source: E. coli BL21 lysate, captured on glutathione Sepharose 4B resin

For the experiment, the target named is T1, MBP-tagged OSGEP. The experiment can be described thus: pull-down; GST-tagged PRPK proteins captured on 20 µl glutathione Sepharose 4B from BL21 lysates, then incubated with about 15 µg purified His-TPRKB or MBP-OSGEP; 20 mM Tris-HCl pH 8.0, 300 mM NaCl, 0.1% Nonidet P-40, 5% glycerol, 2 mM DTT, 0.4 mM PMSF; 2 h at 4°C; 4 washes; Western blot with anti-His or anti-MBP. Conditions: both partners purified. (Immunoblotting shows a protein as a band on a membrane.)
For the molecule B1, the binding result is listed as “binds”.

Consider B2, for which the binding result is “binds”.

Turning to B3, the binding result is “binds”.

For B4, the binding result was “binds”.

For B5, the binding result is on record as “binds”.

With B6, the binding result was “binds”.
